Assay results reported in patent US20210214414A1 (Pfizer, published 2021).

Legend:
[1] = target: T1, Rabbit SLIT3-N (rabbit, UniProt A0A5F9DK65 34-1126); test: HTRF competition: d2-labelled rabbit SLIT3-N binding to human ROBO2 on HEK293 cells; geometric mean, n=3
T1 construct: domain: SLIT3-N; d2-labelled in the HTRF assay
T1 sequence: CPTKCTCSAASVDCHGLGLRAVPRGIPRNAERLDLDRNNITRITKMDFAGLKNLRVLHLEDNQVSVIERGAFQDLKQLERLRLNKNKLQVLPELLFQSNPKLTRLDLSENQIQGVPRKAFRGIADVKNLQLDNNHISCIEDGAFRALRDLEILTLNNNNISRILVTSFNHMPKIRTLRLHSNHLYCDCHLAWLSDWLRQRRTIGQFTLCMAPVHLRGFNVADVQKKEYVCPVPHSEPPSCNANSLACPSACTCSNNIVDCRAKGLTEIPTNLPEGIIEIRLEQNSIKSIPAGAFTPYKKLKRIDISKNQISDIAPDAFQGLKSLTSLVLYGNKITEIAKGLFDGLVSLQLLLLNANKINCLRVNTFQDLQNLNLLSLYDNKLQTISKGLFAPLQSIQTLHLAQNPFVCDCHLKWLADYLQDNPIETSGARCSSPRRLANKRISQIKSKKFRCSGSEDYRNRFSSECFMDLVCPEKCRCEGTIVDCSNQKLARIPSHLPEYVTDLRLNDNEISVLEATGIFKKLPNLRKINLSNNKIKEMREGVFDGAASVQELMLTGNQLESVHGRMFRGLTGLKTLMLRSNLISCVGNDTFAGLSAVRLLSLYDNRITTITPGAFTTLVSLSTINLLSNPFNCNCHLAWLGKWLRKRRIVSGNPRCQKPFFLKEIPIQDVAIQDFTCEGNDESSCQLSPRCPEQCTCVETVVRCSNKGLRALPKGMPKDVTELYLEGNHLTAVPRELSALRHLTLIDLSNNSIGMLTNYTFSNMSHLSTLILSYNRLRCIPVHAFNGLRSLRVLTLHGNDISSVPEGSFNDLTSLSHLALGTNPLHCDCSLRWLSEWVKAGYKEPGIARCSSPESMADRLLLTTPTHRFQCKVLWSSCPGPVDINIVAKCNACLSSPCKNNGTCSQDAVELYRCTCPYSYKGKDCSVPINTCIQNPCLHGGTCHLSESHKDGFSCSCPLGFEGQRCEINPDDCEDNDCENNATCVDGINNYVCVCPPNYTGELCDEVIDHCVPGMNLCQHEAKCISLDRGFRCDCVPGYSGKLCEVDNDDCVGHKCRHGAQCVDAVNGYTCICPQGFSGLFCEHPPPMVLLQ
Description: After incubation, fluorescence at 665 nm and 620 nm was measured on an Envision multilabel plate reader. The HTRF Ratio was calculated as follows: fluorescence at 665 nm/fluorescence at 620 nm×10,000. […] The IC₅₀ for each SLITx-N was determined using an 11-point, 4-fold dilution series with a top concentration of 4000 nM.

[2] = target: T2, Human SLIT2-N (human, UniProt O94813 31-1121, limits assumed); test: SPR, ROBO2-Fc 2.2 captured by anti-human Fc on a C1 chip, human SLIT2-N as analyte, 1:1 model
T2 construct: domain: SLIT2-N (N terminal fragment); Soluble analyte in SPR, d2-labelled in HTRF, overexpressed on HEK293 cells in flow cytometry; also called human SLIT2-N (N terminal fragment)
T2 sequence (looked up): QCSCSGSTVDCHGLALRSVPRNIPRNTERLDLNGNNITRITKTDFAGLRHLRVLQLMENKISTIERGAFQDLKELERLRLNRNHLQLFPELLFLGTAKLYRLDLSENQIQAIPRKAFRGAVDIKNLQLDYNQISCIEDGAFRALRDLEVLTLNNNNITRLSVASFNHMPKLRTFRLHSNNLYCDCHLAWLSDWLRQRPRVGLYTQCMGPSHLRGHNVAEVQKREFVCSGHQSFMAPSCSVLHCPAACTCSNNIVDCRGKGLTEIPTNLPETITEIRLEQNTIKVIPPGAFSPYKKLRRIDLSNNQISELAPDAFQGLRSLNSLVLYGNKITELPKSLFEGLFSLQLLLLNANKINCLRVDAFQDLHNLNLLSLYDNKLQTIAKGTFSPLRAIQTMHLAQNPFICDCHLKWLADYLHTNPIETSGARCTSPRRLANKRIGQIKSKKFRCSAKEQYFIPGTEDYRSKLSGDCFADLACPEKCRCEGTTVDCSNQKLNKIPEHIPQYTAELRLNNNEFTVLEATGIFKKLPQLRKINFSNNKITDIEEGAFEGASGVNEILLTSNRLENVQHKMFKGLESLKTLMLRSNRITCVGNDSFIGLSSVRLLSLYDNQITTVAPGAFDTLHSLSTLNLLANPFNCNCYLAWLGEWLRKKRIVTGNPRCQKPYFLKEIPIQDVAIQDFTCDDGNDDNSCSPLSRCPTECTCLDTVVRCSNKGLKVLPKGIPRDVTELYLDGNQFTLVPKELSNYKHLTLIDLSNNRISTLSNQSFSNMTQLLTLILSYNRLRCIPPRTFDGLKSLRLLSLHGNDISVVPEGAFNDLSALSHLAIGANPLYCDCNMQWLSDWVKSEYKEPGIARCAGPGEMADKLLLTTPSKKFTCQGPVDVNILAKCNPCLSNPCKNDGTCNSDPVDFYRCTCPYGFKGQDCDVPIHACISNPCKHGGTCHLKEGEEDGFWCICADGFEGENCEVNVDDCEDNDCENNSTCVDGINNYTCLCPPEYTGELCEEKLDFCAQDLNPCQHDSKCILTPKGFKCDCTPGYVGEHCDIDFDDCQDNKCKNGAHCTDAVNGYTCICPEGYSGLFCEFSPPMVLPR
Description: HBS-EP was used as a diluent. […] An 8 point 2-fold dilution series was performed on the SLIT2 ligands, ranging from 2 nM to 15.6 pM using HBS-EPB as the diluent. […] Association of the indicated SLIT2 ligand was followed for 120 s and dissociation monitored for 180 s. The apparent binding affinity was determined using a simple 1:1 interaction model of the kinetic rate constants.

- IC50 [1]: 10.2 nM
- Kd [2]: 0.279 nM
B1: ROBO2-Fc 2.2 (Fc fusion)
chain: SRLRQEDFPPRIVEHPSDVIVSKGEPTTLNCKAEGRPTPTIEWYKDGERVETDKDDPRSHRMLLPSGSLFFLRIVHGRRSKPDEGSYVCVARNYLGEAVSRNASLEVALLRDDFRQNPTDVVVAAGEPAILECQPPRGHPEPTIYWKKDKVRIDDKEERISIRGGKLMISNTRKSDAGMYTCVGTNMVGERDSDPAELTVFERGGSGGSEPKSSDKTHTCPPCPAPEAAGAPSVFLFPPKPKDTLMISRTPEVTCVVVDVSHEDPEVKFNWYVDGVEVHNAKTKPREEQYNSTYRVVSVLTVLHQDWLNGKEYKCKVSNKALPAPIEKTISKAKGQPREPQVYTLPPSREEMTKNQVSLTCLVKGFYPSDIAVEWESNGQPENNYKTTPPVLDSDGSFFLYSKLTVDKSRWQQGNVFSCSVMHEALHNHYTQKSLSLSPG
notes: Labelled with Alexa Fluor 647 in the flow cytometry assay; also called ROBO-Fc 2.2; ROBO2-Fc 2.2-AF647
